test: yeast display, Sf9 membrane polyspecificity reagent, FACS + sequencing; frameworks hold sequencing errors
In short: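 After 36–48 hours of galactose induction, yeast (Saccharomyces cerevisiae BJ5465) displaying a synthetic nanobody library were stained at 4 °C for 1 hour with 10% biotinylated, detergent-solubilized Sf9 membrane reagent. Streptavidin microbeads enriched the stained cells before FACS sorting into low and high (top ~1%) gates on anti-HA and streptavidin fluorescence. Each clone's polyreactivity label reflects its gate of origin.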

Sequence	polyreactivity (PSR sort gate)
QVQLVESGGGLVQAGGSLRLSCAASGIIFPEYDRGWYRQAPGKERELVAAITKSDGRTYYADSVKGRFTISRDNAKNTVYLQMNSLKPEDTAVYYCNADPRVVAYLGFDSWGQGTQVTVSS	low polyreactivity
QVQLVESGGGLVQAGGSLRLSCAASGLMLGYYAMGWYRQAPGKERELGATIRRGASTYYADSVKGRLTISRDNAKNTVYLQMNSLKPEDTALYYCAAYGHQFQGDYNYWGPGTQVTVSS	low polyreactivity
QVQLVESGGGLVQAGGSLRLSCAASGRIYAMGWYRQAPGKERELVAAISRGGSTYYADSVKGRFTISRDNAKNTVYLQMNSLKPEDTAVYYCARRYASTGYDYWGQCTQVTVSS	high polyreactivity
QVQLVESGGGLVQAGGSLRLSCAASGITFNTYAMGWYRQAPGKERELVAVITWSDGGTYYADSVKGRFTISRDNAKNTVYLQMNSLKPEDTAVYYCAADYYWGYDYWGQGTQVTVSS	low polyreactivity
QVQLVESGRGLVQAGVSLRLSCAASGFIFKGYAMGWYRQATGKERELVAAITWSGRTYYADSVKGRFTISRDNAKNTVYLKMNSLKPEDTAVFYCAVDRGRGSTYKYDYWGQGTQVNVSS	low polyreactivity
QVQLVESGGGLVQAGGSLRISCAASGSTFSYYAMGWYRQAPGKERELVADISWSGGSTYYADSVKGRFTISRDNAKNTVYLQMNSQKPEDTAVFYCAARGYVRWYNRYDYWGQGTQVTVSS	low polyreactivity
QVQLVESGGGLVQAGGSLRLSCAASGRTFRRYAMGWYRQAPGKERELVAAITRGTRTNYADSVKGRFTISRDNAKNTVYLQMNSLKPEDTAVYYCNARRFLYSGGAYQFYYWGQGTQVTVSS	low polyreactivity
QVQLVESGGGLVQAGGSLRLSCAASGIIFQGNAMGWYRQAPGKERELVAAISSGGSTYYADSVKGRFTISRDNAKNTVYLQMNSLKPEDTAVYYCNAGAYVRYDYWGQGTQVTVSS	low polyreactivity
QVQLVESGGGLVQAGGSLRLSCAASGSTFYRNAMGWYRQAPGKEREFVAAISFRGGGTYADSVKGRFTISRDNAKNTVYLQMNSLIPEDTAVYYCAADHLSYRRRYEYWGQGTQVTVSS	low polyreactivity
QVQLVESGGGLVHAGGSLRLSCAASGSTFRHNAMGWYRQAPGKERELVAAINRSGVSTHYADSVKGRFTISRDNAKNTVYLQMNSLKPEDTAVYYCAVDSYPKSLWYYGGVYSPLDYWGQGTQVTVSS	low polyreactivity
QVQLVESGGGLVQAGGSLRISCAASGSTFGWYTMGWYRQAPGKERELVAAISQGGGRTRYADSVKGRFTISRDNAKNTVYLQMNSLKPEDTAVYYCAATYYHRPYISNYGYWGQGTQVTVSS	high polyreactivity
QVQLQESGGGLVQAGGSLRLSCAASGNIVDADIMGWYRQAPGKERELVASITDGGSTNYADCVKGRFTISRDNAKNTVYLKMNSLKPEDTAVYYCAAIAYPDIPTYFDYDSEYFYWGQGTQVTVSS	low polyreactivity
QVQLVESGGGLVQAGGSLRLSCAASGRIFRRYAMGWYRQAPGKEREFVAAISYGGGSTYYADSVKGRFTISRDNAKNTVYLQMNSLKPEDTAVYYCNADEVVWGYNYWGQGTQVTVSS	low polyreactivity
KVQLLYSAGGLVHAGGSLRLSCAASGNIFRSYAMGWYRQAPGKERELVAAISSRGGSTYYADTVKVRFTISRDNAMNTVYLQMNSLKPEDTAVYYCNAPSTQQGPKYDYWGQGTQVTVSS	low polyreactivity
QVQLVESGGGLVQAGGSLRLSCAASGFTFSLYGMGWYRQAPGKERELVAAIRSGGSTNYADSVKGRFTISRDNAKNTVYLQMNSLKPEDTAVYYCATDIHSVHNNRDKHDYDYWGQGTQVTVSS	low polyreactivity
QVQLVESGGGLVQAGGSLRLSCAASGFTFSTNAMGWYRQAPGKERELVAAISKSGVSTYYADSVKGRFTISRDNAKNTVYLQMNSLKTEDTAVYYCAADPKIALYKVWRYDYWGQGTQVTVSS	high polyreactivity
QVQLVESGGGLVQAGGSLRLSCAASGSTFGSNAMGWSRQAPGKERELVAAITYSGGRTYYADSVQGRFTISRDNAKNTVYLQMNSLKPEDPAVYYCAATFGFFYYQYDYWGQGTQVTVSS	low polyreactivity
QVQLVESGGGLVQAGGSLRLICAASGSIYYSYGMGWYRQAPGKERELVAAITSSGGGTYYADSVKGRFTISRDNAKNTFYLQMNSLKPEDTAVYYCAADDRNYNYYPTFYYWGQGTQVTVSS	low polyreactivity
QVQLVESGGGLVQAGGSLRLSCAASGFTFLKYAMGWYRQAPGKERELVAAISWSGGRTFYADSVKGRFTISRDNAKNTVYLQMISLKPEDTAVYYCATRTRGSVYRFDYWGQGTQVTVSS	high polyreactivity
QVQLVESGGGLVQAGGSLRLSCAASGSTFSDYVMGWYRQAPGKERELVAAISWSGDRTYYADSVKGRFTISRDNAKNTFYLQMNSLKPEDTAVYYCAAEYAPSDPSYYYGYDYWGQGTQVTVSS	high polyreactivity
QVQLEDSGGGLVQAGGSLRLSCAASGSTFYTYAMGWYRQAPGKERELVAAITFIDGSTYYADSVKGRFTISRDNAKNTVYLQMNSLKPEDTAVYYCAADDAKFRYRDDYWGQGTQVTVSS	low polyreactivity

Sequence	polyreactivity (PSR sort gate)
QVQLVESGGGLVQAGGSLRLSCAASGRTFYAYAMGWYRQAPGKERELVAAITSGASTYYADSVKGRFTISRDNAKNTVYLQMISLKPEDTAVYYCAKRVRYYKPGYDYWGQGTQVTVSS	low polyreactivity
QVQLVESGGGLVQAGGSLRLSCAASGYNFERNAMGWYRPAPGKERELVAAITDDGDDTYYADSVKGRFTISRDNAKNTVYLQMNSLKPEDTAVYYCAKDLYYGDYYYWGQGTQVTVSS	low polyreactivity
QVQLVESGGGLVQAGGSLRLSCAASGFIFSVNAMGWYRQAPGKERELVADISCRGTSTNYADSVKGRFTISRDNAKNTVYLQMNSLKPEDTAVYYCAADGQLHMDYWGQGTQVTVSS	high polyreactivity
QGQLVESGGGLVQAGGSLRLSCAASGIIFTANVMGWYRQAPGKERELVAAITRGGNTYYADSVKGRFTISRDNAKNTVYLQMNSLKPEDTAVYYCAAADYTTPVPYGRKGFDYWGQGTQVTVSS	low polyreactivity
QVQLVESGGGLVQAGGSLRLSCASSGIIFLTYAMGWYRQAPGKERELVAAINSTGSTNYADSVKGRFTISRDNAKYSVYLQMNSLKPDDTAVYYCAAEGLPYVRVFDFVSRYDYWGQGTQVTVSS	low polyreactivity
QVQRVESGGGLVQAGGSLRLSCAASGRTFSKNAMGRTRQAPGQETELVAAISGSGGSTYYADSVKGRFTISRDNAKNTVYLQMNSLKPEDTAVYYCADRYTVRRSGYWGQGTQVTVSS	high polyreactivity
QVQLVESGGGLVQAGGSLRLSCDASGSIYRLNAMGWYRQAPGKEMELVAAITWSDSSTYYADSVKGRFTISRDNAKYTVYLQMNSLKPEDTAVYYCAADPQSYKYDYWGQGTQVTVSS	low polyreactivity
QVQLVESGGGLVQAGGSLRLSCAASGRIFGKYAMGWYRQAPGKERELVAVITSRDGRTYYADSVKGRFTISRDNAKNTVYLQMNSLIPEDTAVYYCAADYWTGITPDAIGDYWGQGTQVTVSS	low polyreactivity
QVQLVESGGGLVQAGGSLRLSCAASGSIFYYNAMGWYRQAPGKERELVAAITSGGSTHYADSVKGRFTISRDNAKNTVYLQMNSLKPEDTAVYYCAADVWYKYHRSAIIVEFDYWGQGTQVTVSS	low polyreactivity
QVQLVESGGGLVQAGGSLRLSCAASGRTFGYYTMGWYRQAPGKEREYVAAISGSGTITFYADSVKGRFTISRDNAKNTVYLQMNSLKPEDTAVYYCAADYRYGGSRGYRYDYWGQGTQVTVSS	low polyreactivity
QDQHVESVGGLVQAGGGLPLSCAASGRTFTYNAMGWYRQPPGKERELVAAITSGGTTNYADSVKGRFTISRDNAKNTVYLQMNSLKQEDTAVYYCAARRVYYSYRRYYYWGQGTQVTVSS	low polyreactivity
QVQLEESGGGLVQAGGSLRLSCAASVFTFSRYAMGWYRQAHGKVREIVAAISYRGGSTYADSVKGRFTISRDNAKNTVYLQMNSLKPEDTAVYYCAALRWGTDVWRRRIGSLLMGYSGQGTQVTVSS	high polyreactivity
KVQLVESGGGLVQAGGSLRLSCAASGGTFYRYAMGWYRQAPGKERELVAAITSGSSTYYADSVKGRFTISRDNAKNTVYLQMNSLKPEDTAVYYCAAARYSRLSRTRPGKYGYWGQGTQVTVSS	low polyreactivity
QVQLVESGGGLVQAGGSLRLSCAASGRTFAWYTMGWYRQAPGKESELVAAISGSGGSTYYADSVKGRFTISRDNANNTVYLQMNSLKPDDTAVYYCARRVDSYYGHTRYYYWGQGTQVTVSS	high polyreactivity
QVQLVESGGGLVQAGGSLRLSCAASGIIFGRYAMGWYRQAPGKEREFVAAIRSRGGSTYYADSVKGRFTISRDNAKNTVYLQMNSLKPEDTAVYYCNAGHIYAGYRREYDYWGQGTQVTVSS	high polyreactivity
QVQLVESGGGLVQAGGSLRLSCAASGGIFYRNAMGWYRQAPGKERELVAAITQSGGRTYYADSVKGRFTISRDNAKNTVYLQMNSLKPEDTAVYYCAARSRKLYGHYRGAYDYWGQGTQVTVSS	high polyreactivity
QVQLVESGGGLVQAGGSLRLSCAASGRTFGIYAMGWYRQAPGKERELVASISWSGGRTYYADSVKGRFTISRDNAKNTVYLQMNSLIPEDTAVYYCAAYGVYYPRSWQYFDWYGYWGQGTQVTVSS	high polyreactivity
QVQLVESGGGLVQAGRSLRLTCAASGIIFIGNAMGWYRQATGKERELVAAISRRGGRTYYADSVKGRFTISRDNAKNTVYLQMFSLKPEDTAVYSCNAEITVNDDDYWGQGTQVTVSS	high polyreactivity
QVQLVESGGGLVQAGGSLRLSCAASGFTFPRNAMGWYRQAPGKERELVAAISRGGGGTYYADSVKGRFTISRDNAKNTVYLQMNSLKPEDTAVYYCNARSVVREFNYWGQGTQVTVSS	high polyreactivity
QVQHVESGGRLVQAGGSLRLSCAASGSNWIYAMGWYRQAPGKERELVAAISVSGDRTYYADSVKGRFTISRDNAKNTVYLQMNSLKPEDTAVYYSATPPYPGRDYWGQGTEVTVSS	high polyreactivity

— the nanobody polyreactivity screen of Harvey et al. (2022)
